Patent publication US20240383990A1 (DIAGONAL THERAPEUTICS, published 2024)
Substitutions are numbered along the chain they refer to.

T1: IL-18 receptor (IL-18Rα and IL-18Rβ) on HEK-Blue IL-18 cells (UniProt Q13478 19-541; O95256 20-599, limits assumed)
T1 sequence (looked up) 1: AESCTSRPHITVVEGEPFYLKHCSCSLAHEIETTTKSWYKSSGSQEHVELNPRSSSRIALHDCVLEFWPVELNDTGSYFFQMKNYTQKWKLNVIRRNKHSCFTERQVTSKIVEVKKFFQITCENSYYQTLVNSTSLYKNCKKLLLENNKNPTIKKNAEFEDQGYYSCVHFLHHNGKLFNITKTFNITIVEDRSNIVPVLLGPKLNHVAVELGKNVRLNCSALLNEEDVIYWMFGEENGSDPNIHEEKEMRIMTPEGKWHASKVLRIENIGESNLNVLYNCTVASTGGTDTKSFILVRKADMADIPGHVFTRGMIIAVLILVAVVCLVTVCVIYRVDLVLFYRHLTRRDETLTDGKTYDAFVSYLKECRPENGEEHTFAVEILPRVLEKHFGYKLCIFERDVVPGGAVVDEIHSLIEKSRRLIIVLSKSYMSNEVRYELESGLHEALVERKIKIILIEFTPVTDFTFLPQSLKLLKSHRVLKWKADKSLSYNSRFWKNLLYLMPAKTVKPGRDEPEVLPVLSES
T1 sequence (looked up) 2: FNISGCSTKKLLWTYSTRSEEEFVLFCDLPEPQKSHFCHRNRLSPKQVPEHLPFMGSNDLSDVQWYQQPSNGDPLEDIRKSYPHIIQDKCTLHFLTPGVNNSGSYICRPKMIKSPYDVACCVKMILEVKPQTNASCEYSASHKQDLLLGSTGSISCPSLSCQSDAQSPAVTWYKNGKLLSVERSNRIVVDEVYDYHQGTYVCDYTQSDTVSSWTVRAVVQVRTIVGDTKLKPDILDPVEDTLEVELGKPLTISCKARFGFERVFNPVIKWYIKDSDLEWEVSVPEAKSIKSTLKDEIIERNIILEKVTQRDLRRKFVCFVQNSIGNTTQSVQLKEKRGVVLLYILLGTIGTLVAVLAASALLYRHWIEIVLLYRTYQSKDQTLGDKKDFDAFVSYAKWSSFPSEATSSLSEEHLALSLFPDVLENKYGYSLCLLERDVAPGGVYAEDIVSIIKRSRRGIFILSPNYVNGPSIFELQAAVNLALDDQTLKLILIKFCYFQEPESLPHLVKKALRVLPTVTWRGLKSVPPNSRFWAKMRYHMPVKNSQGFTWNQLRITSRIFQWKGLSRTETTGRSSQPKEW

B1: DGL093 (bispecific antibody, IgG1)
chain 1: QVQLVESGGGLVQAGGSLRLSCAASGRTFSKHAMGWFRQAPGKEREFVAAIDWSGGSTYYADSVKGRFTISRDNAKNTVYLQMDSLKPEDTAVYYCAADSYTDYAQLWLPELESEYDYWGQGTQVTVSSDKTHTCPPCPAPEAAGGPSVFLFPPKPKDTLMISRTPEVTCVVVDVSHEDPEVKFNWYVDGVEVHNAKTKPREEQYNSTYRVVSVLTVLHQDWLNGKEYKCKVSNKALPAPIEKTISKAKGQPREPQVCTLPPSRDELTKNQVSLSCAVKGFYPSDIAVEWESNGQPENNYKTTPPVLDSDGSFFLVSKLTVDKSRWQQGNVFSCSVMHEALHNHYTQKSLSLSPG
chain 2: not shown
B2: DGL221 (bispecific antibody)
chain 1: QVQLVESGGGLVQAGGSLRLSCAASGRTFSKHAMGWFRQAPGKEREFVAAIDWSGGSTYYADSVKGRFTISRDNAKNTVYLQMDSLKPEDTAVYYCAADSYTDYAQLWLPELESEYDYWGQGTLVTVSSGGGGSGGGGSGGGGSGGGGSCPPCPAPEAAGAPSVFLFPPKPKDTLMISRTPEVTCVVVDVSHEDPEVKFNWYVDGVEVHNAKTKPREEQYNSTYRVVSVLTVLHQDWLNGKEYKCKVSNKALPAPIEKTISKAKGQPREPQVCTLPPSRDELTKNQVSLSCAVKGFYPSDIAVEWESNGQPENNYKTTPPVLDSDGSFFLVSKLTVDKSRWQQGNVFSCSVMHEALHNHYTQKSLSLSPGWSHPQFEK
chain 2: not shown
B3: DGL207 (bispecific antibody)
chain 1: QVQLVESGGGLVQAGGSLRLSCAASGRTFSKHAMGWFRQAPGKEREFVAAIDWSGGSTYYADSVKGRFTISRDNAKNTVYLQMDSLKPEDTAVYYCAADSYTDYAQLWLPELESEYDYWGQGTLVTVSSCPPCPAPEAAGAPSVFLFPPKPKDTLMISRTPEVTCVVVDVSHEDPEVKFNWYVDGVEVHNAKTKPREEQYNSTYRVVSVLTVLHQDWLNGKEYKCKVSNKALPAPIEKTISKAKGQPREPQVCTLPPSRDELTKNQVSLSCAVKGFYPSDIAVEWESNGQPENNYKTTPPVLDSDGSFFLVSKLTVDKSRWQQGNVFSCSVMHEALHNHYTQKSLSLSPGWSHPQFEK
chain 2: QLQLVESGGGLVQAGGSLRLSCAASRSITFSHNVMGWYRQAPGKQRELVASIGSGGSTNYVDSVKGRATISRDNAKKTVYLQMNSLKPEDTAVYYCGVVVGVYRGSLGQGTLVTVSSCPPCPAPEAAGAPSVFLFPPKPKDTLMISRTPEVTCVVVDVSHEDPEVKFNWYVDGVEVHNAKTKPREEQYNSTYRVVSVLTVLHQDWLNGKEYKCKVSNKALPAPIEKTISKAKGQPREPQVYTLPPCRDELTKNQVSLWCLVKGFYPSDIAVEWESNGQPENNYKTTPPVLDSDGSFFLYSKLTVDKSRWQQGNVFSCSVMHEALHNHYTQKSLSLSPGEPEA
B4: DGL209 (bispecific antibody)
chain 1: QVQLVESGGGLVQAGGSLRLSCAASGRTFSKHAMGWFRQAPGKEREFVAAIDWSGGSTYYADSVKGRFTISRDNAKNTVYLQMDSLKPEDTAVYYCAADSYTDYAQLWLPELESEYDYWGQGTLVTVSSPLAPCPPCPAPEAAGAPSVFLFPPKPKDTLMISRTPEVTCVVVDVSHEDPEVKFNWYVDGVEVHNAKTKPREEQYNSTYRVVSVLTVLHQDWLNGKEYKCKVSNKALPAPIEKTISKAKGQPREPQVCTLPPSRDELTKNQVSLSCAVKGFYPSDIAVEWESNGQPENNYKTTPPVLDSDGSFFLVSKLTVDKSRWQQGNVFSCSVMHEALHNHYTQKSLSLSPGWSHPQFEK
chain 2: QLQLVESGGGLVQAGGSLRLSCAASRSITFSHNVMGWYRQAPGKQRELVASIGSGGSTNYVDSVKGRATISRDNAKKTVYLQMNSLKPEDTAVYYCGVVVGVYRGSLGQGTLVTVSSPLAPCPPCPAPEAAGAPSVFLFPPKPKDTLMISRTPEVTCVVVDVSHEDPEVKFNWYVDGVEVHNAKTKPREEQYNSTYRVVSVLTVLHQDWLNGKEYKCKVSNKALPAPIEKTISKAKGQPREPQVYTLPPCRDELTKNQVSLWCLVKGFYPSDIAVEWESNGQPENNYKTTPPVLDSDGSFFLYSKLTVDKSRWQQGNVFSCSVMHEALHNHYTQKSLSLSPGEPEA
B5: DGL945 (bispecific antibody, human IgG1, lambda)
heavy: EVQLLESGGGLVQPGGSLRLSCAASGFTFSDYYMTWIRQAPGKGLEWVSSISGGSTYYADSRKGRFTISRDNSENTLYLQMNSLRAEDTAVYYCARDFGVAGWFGQYGMDVWGQGTLVTVSSPLAPEVQLLESGGGLVQPGGSLRLSCAASGFTFSSYAMSWVRQAPGKGLEWVANINQDGSEKNYVDSMRGRFTISRDNSKNTLYLQMNSLRAEDTAVYYCAREFDYWGQGTLVTVSSASTKGPSVFPLAPSSKSTSGGTAALGCLVKDYFPEPVTVSWNSGALTSGVHTFPAVLQSSGLYSLSSVVTVPSSSLGTQTYICNVNHKPSNTKVDKKVEPKSCDKTHTCPPCPAPEAAGAPSVFLFPPKPKDTLYITREPEVTCVVVDVSHEDPEVKFNWYVDGVEVHNAKTKPREEQYNSTYRVVSVLTVLHQDWLNGKEYKCKVSNKALPAPIEKTISKAKGQPREPQVYTLPPSRDELTKNQVSLTCLVKGFYPSDIAVEWESNGQPENNYKTTPPVLDSDGSFFLYSKLTVDKSRWQQGNVFSCSVMHEALHNHYTQKSLSLSPG
light: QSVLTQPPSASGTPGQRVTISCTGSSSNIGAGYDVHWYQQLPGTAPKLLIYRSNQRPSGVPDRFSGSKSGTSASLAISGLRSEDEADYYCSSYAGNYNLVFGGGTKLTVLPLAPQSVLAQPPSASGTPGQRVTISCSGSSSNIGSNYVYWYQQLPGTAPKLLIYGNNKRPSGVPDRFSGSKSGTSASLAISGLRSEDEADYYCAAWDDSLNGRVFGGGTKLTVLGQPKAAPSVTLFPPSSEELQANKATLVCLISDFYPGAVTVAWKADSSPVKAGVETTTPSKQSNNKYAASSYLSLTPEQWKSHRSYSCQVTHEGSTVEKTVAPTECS
B6: DGL947 (bispecific antibody, human IgG1, lambda)
heavy: B5 heavy with T35N, R62V, Y107F, A159W, N185Y, F226Y
light: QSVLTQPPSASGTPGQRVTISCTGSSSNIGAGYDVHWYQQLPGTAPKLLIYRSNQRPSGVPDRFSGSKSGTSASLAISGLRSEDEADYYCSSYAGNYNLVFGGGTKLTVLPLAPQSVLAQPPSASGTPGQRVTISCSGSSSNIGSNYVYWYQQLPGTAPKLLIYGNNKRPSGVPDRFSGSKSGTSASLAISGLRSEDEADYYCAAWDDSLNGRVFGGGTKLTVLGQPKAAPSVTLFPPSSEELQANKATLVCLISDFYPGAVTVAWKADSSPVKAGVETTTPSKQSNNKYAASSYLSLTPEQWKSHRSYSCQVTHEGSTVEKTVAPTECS
B7: DGL1146 (bispecific antibody, human IgG1, lambda)
heavy: B5 heavy with Y374M, T376S, E378T, M550L, N556S
light: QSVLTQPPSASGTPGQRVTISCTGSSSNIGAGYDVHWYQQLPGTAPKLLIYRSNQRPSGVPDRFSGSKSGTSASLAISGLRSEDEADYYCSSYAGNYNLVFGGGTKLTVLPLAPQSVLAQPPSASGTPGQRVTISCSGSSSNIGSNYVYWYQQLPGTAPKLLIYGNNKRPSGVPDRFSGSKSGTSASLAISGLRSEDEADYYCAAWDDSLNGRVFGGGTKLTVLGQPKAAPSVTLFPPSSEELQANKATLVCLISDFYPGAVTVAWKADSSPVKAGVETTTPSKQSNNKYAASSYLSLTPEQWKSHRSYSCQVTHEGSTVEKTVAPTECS
B8: DGL949 (bispecific antibody, human IgG1, lambda)
heavy: B5 heavy with T35N, R62V, Q106Y, A159W, N178K, Y228F
light: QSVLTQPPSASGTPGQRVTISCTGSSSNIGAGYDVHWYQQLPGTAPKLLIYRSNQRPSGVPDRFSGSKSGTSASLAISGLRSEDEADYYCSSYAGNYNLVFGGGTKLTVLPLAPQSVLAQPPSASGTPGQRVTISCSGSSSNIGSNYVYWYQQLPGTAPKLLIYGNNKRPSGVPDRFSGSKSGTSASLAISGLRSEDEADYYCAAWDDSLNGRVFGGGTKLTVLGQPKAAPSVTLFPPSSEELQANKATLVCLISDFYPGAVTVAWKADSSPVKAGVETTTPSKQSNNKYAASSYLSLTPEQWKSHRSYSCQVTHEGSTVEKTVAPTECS
B9: DGL222 (bispecific antibody)
chain 1: QVQLVESGGGLVQAGGSLRLSCAASGRTFSKHAMGWFRQAPGKEREFVAAIDWSGGSTYYADSVKGRFTISRDNAKNTVYLQMDSLKPEDTAVYYCAADSYTDYAQLWLPELESEYDYWGQGTLVTVSSEKSYGPPCPPCPAPEAAGAPSVFLFPPKPKDTLMISRTPEVTCVVVDVSHEDPEVKFNWYVDGVEVHNAKTKPREEQYNSTYRVVSVLTVLHQDWLNGKEYKCKVSNKALPAPIEKTISKAKGQPREPQVCTLPPSRDELTKNQVSLSCAVKGFYPSDIAVEWESNGQPENNYKTTPPVLDSDGSFFLVSKLTVDKSRWQQGNVFSCSVMHEALHNHYTQKSLSLSPGWSHPQFEK
chain 2: not shown

How the values were obtained:
Test in all cases: cell-based or functional assay
[1] = target: T1, IL-18 receptor (IL-18Rα and IL-18Rβ) on …
[2] = target: T1, IL-18 receptor (IL-18Rα and IL-18Rβ) on …; remark: listed apart in the source
[3] = target: T1, IL-18 receptor (IL-18Rα and IL-18Rβ) on …; remark: listed apart in the source
[4] = target: ALK1 / BMPRII receptor pair (BMPR Type I receptor ALK1 and BMPR Type II receptor BMPRII) on cells (UniProt P37023 22-503; Q13873 27-1038, limits assumed)
ALK1 / BMPRII receptor pair (BMPR Type I receptor ALK1 and BMPR Type II receptor BMPRII) on cells, sequence (P37023 22-503 limits assumed, chain 1 of 2): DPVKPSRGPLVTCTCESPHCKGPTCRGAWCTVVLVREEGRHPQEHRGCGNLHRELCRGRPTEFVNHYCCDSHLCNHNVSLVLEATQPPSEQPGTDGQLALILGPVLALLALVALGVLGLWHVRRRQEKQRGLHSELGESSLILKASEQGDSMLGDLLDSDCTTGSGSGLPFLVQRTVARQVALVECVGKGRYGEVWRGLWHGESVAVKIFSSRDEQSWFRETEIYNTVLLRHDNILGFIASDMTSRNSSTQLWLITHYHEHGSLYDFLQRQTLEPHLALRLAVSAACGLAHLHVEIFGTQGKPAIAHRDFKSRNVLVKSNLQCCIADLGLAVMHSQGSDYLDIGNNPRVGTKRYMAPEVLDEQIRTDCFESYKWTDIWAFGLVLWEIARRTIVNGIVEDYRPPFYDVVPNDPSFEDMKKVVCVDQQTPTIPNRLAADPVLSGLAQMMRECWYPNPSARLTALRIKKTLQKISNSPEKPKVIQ
ALK1 / BMPRII receptor pair (BMPR Type I receptor ALK1 and BMPR Type II receptor BMPRII) on cells, sequence (Q13873 27-1038 limits assumed, chain 2 of 2): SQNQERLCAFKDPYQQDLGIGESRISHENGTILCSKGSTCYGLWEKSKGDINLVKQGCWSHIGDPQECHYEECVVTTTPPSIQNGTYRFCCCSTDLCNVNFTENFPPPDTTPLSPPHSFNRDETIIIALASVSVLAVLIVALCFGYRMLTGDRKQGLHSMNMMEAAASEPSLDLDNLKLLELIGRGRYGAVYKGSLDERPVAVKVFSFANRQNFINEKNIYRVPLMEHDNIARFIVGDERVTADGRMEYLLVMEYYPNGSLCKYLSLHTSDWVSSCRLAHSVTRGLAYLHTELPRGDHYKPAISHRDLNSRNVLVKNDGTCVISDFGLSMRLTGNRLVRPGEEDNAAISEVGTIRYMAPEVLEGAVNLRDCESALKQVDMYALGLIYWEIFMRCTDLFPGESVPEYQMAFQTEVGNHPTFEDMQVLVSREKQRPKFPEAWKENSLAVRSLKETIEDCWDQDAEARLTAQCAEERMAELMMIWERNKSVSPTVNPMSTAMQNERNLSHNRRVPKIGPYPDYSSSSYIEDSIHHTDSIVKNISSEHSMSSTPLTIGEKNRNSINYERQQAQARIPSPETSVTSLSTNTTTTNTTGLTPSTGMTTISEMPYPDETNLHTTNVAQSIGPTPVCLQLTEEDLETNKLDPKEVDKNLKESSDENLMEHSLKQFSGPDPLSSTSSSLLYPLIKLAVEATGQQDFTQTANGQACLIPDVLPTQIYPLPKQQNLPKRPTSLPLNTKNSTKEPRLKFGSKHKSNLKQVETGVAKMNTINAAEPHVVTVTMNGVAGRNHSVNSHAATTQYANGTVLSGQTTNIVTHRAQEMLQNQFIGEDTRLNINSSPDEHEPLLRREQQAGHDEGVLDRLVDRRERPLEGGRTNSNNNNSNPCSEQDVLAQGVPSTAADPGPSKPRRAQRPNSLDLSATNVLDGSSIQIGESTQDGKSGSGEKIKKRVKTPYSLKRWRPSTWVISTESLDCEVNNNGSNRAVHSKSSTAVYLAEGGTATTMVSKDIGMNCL

Row | Binder | HEK-Blue assay, % hu-IL-18 [1] | Agonist activity in DiscoverX assay, % Emax BMP9 [4] [% Emax BMP9] | also measured
1 | B1 | 65 % of human IL18 activity | – | –
2 | B2 | – | – | HEK-Blue assay, % human IL18 [2]: 19 % human IL18
3 | B3 | 98 % of human IL18 activity | – | HEK-Blue assay, % human IL-18 [3]: 85 % of human IL18 activity
4 | B4 | 89 % of human IL18 activity | – | HEK-Blue assay, % human IL-18 [3]: 65 % of human IL18 activity
5 | B5 | – | 78 | –
6 | B6 | – | 47 | –
7 | B7 | – | 78 | –
8 | B8 | – | 42 | –
9 | B9 | – | – | HEK-Blue assay, % human IL18 [2]: 44 % human IL18
